From paper PMC10319729 (2023)

B1: R2Fu-mFc (RSPO2 furin domain fused to monomeric human IgG4-Fc, monovalent) (Fc fusion)
chain: NPICKGCLSCSKDNGCSRCQQKLFFFLRREGMRQYGECLHSCPSGYYGHRAPDMNRCARCRIENCDSCFSKDFCTKCKVGFYLHRGRCFDECPDGFAPLEETMECVE
B2: R2Fu-bFc (RSPO2 furin domain fused to wild-type IgG1-Fc, bivalent) (Fc fusion)
chain: NPICKGCLSCSKDNGCSRCQQKLFFFLRREGMRQYGECLHSCPSGYYGHRAPDMNRCARCRIENCDSCFSKDFCTKCKVGFYLHRGRCFDECPDGFAPLEETMECVE

Assays:
[1] = biological target: T1, LGR5ΔCT (human LGR5 without the cytoplasmic C-terminal tail) on HEK293 cells (human, UniProt O75473 22-907)
T1 chain: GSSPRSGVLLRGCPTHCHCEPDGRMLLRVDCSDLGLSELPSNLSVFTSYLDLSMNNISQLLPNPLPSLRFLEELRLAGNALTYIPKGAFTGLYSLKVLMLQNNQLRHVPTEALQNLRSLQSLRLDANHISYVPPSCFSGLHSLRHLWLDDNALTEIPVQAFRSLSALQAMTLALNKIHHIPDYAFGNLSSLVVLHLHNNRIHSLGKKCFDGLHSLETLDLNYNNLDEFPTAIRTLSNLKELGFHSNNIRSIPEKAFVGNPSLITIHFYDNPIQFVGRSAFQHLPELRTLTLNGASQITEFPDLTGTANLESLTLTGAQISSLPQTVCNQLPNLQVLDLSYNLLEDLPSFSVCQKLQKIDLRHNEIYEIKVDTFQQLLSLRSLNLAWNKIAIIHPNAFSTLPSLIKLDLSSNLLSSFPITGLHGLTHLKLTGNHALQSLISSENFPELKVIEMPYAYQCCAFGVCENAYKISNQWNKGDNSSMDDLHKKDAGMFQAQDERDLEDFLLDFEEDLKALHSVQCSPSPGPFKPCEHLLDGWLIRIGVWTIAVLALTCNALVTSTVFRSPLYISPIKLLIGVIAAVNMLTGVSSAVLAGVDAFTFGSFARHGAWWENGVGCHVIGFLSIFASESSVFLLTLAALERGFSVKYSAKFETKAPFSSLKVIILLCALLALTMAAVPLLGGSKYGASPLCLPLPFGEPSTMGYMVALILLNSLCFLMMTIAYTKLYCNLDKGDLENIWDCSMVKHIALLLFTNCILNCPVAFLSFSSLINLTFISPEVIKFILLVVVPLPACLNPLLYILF

[2] = biological target: LGR4 (HA-LGR4) over-expressed on HEK293 cells (UniProt Q9BXB1 25-951)

Row | Kd [1] [nM] | Kd [2] [nM] | Binder
1 | 2.3 |  | B1
2 | 1.8 | 9 | B2
